Changes are numbered by the printed parent chain. “And” between values parts separate entries of the source, which are not always exact repeats. Equal values may be shown once.
T1: recombinant human BCMA Fc(kih) (human, UniProt Q02223 4-53, site-specifically biotinylated at the C-terminal avi-tag ; Biotin on the avi-tag at the C-terminus of the Fc knob chain (tag and Fc left out).)
T1 construct: Knobs-into-holes heterodimer carrying one BCMA ectodomain; also called huBCMA Fc(kih); huBCMA; not shown: human IgG1 hinge-Fc knob chain with C-terminal avi-tag, and the unfused Fc hole chain
T1 chain: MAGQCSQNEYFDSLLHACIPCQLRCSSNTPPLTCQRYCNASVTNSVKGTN

T2: human BCMA on cells (human, UniProt Q02223 1-184)
T2 construct: whole, on cells; also called huBCMA on HEK cells; HEK-huBCMA cells
T2 sequence (looked up): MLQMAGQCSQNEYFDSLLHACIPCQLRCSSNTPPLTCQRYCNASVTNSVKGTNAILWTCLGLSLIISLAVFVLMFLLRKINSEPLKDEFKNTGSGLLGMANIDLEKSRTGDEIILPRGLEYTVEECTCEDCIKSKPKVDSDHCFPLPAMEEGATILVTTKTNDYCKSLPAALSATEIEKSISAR

B1: Mab 42 IgG (antibody, V domains shown)
VH: EVQLLESGGGLVQPGGSLRLSCAASGFTFSDNAMGWVRQAPGKGLEWVSAISGPGSSTYYADSVKGRFTISRDNSKNTLYLQMNSLRAEDTAVYYCAKVLGWFDYWGQGTLVTVSS
VL: EIVLTQSPGTLSLSPGERATLSCRASQSVSDEYLSWYQQKPGQAPRLLIHSASTRATGIPDRFSGSGSGTDFTLAISRLEPEDFAVYYCQQYGYPPDFTFGQGTKVEIK
notes: also called antibody 42; clone 42
B2: Mab 27 IgG (antibody, V domains shown)
VH: EVQLLESGGGLVQPGGSLRLSCAASGFTFSSAPMGWVRQAPGKGLEWVSAISYIGHTYYADSVKGRFTISRDNSKNTLYLQMNSLRAEDTAVYYCAKVLGWFDYWGQGTLVTVSS
VL: B1 VL with D31E, E32Y, S35A, H50E, S51H, A75T

Columns and labels:
[1] = biological target: T3, murine BCMA extracellular domain, monomeric Fc-fusion (murine, UniProt O88472 1-49, site-specifically biotinylated at the C-terminal avi-tag); assay: SPR one-shot kinetics (ProteOn XPR36), IgG captured from HEK293 supernatant via anti-human F(ab)2, BCMA as analyte
T3 construct: extracellular domain; also called muBCMA; mouse BCMA; not shown: hinge and Fc of human IgG1, knob chain; avi-tag; unfused human IgG1 Fc portion (hole chain)
Protocol: (§1) All experiments were performed at 25° C. using PBST as running buffer (10 mM PBS, pH 7.4 and 0.005% (v/v) Tween®20). A ProteOn XPR36 biosensor equipped with GLC and GLM sensor chips and coupling reagents (10 mM sodium acetate, pH 4.5, sulfo-N-hydroxysuccinimide, 1-ethyl-3-(3-dimethylaminopropyl)-carbodiimide hydrochloride [EDC] and ethanolamine) was purchased from BioRad Inc. (Hercules, Calif.). Immobilizations were performed at 30 μl/min. on a GLM chip. pAb (goat) anti hu IgG, F(ab)2 specific Ab (Jackson) was coupled in vertical direction using a standard amine-coupling procedure: all six ligand channels were activated for 5 min with a mixture of EDC (200 mM) and sulfo-NHS (50 mM). Immediately after the surfaces were activated, pAb (goat) anti hu IgG, F(ab)2 specific antibody (50 μg/ml, 10 mM sodium acetate, pH 5) was injected across all six channels for 5 min. Finally, channels were blocked with a 5 min injection of 1 M ethanolamine-HCl (pH 8.5). […] One-shot kinetic measurements were performed by injection of a dilution series of human, cyno and mouse BCMA (50, 10, 2, 0.4, 0.08, 0 nM, 50 μl/min) for 3 min along the vertical channels. Dissociation was monitored for 5 min Kinetic data were analyzed in ProteOn Manager v. 2.1. Processing of the reaction spot data involved applying an interspot-reference and a double-reference step using an inline buffer blank (Myszka, 1999). The processed data from replicate one-shot injections were fit to a simple 1:1 Langmuir binding model without mass transport (O'Shannessy et al., 1993).

[2] = biological target: T4, recombinant cynomolgus BCMA Fc(kih) (cynomolgus, UniProt A0A2K5UD97 4-51); assay: as above
Protocol: as §1

[3] = biological target: T1, recombinant human BCMA Fc(kih); assay: as above
Protocol: as §1

human BCMA on cells = biological target: T2, human BCMA on cells; assay: flow cytometry on HEK-huBCMA cells, PE anti-human Fc detection
[4] = biological target: T4, recombinant cynomolgus BCMA Fc(kih); assay: SPR (Biacore T200), IgG captured via anti-human Fab, BCMA Fc(kih) as analyte, 1:1 Langmuir fit
Protocol: (§2) Assessment of binding of anti-BCMA antibodies to recombinant BCMA by surface plasmon resonance (SPR) as follow. […] The avidity of the interaction between anti-BCMA antibodies and recombinant BCMA Fc(kih) (human and cynomolgus) was determined. Biotinylated recombinant human and cynomolgus BCMA Fc(kih) were directly coupled on a SA chip following instructions (Biacore, Freiburg/Germany). The immobilization level ranged from 200 to 700 RU. […] The dissociation was monitored for 180 seconds. Bulk refractive index differences were corrected for by subtracting the response obtained on the reference flow cell. Here, the anti-BCMA antibodies were flown over an empty surface previously activated and deactivated as described in the standard amine coupling kit. Apparent kinetic constants were derived using the Biacore T200 Evaluation Software (vAA, Biacore AB, Uppsala/Sweden), to fit rate equations for 1:1 Langmuir binding by numerical integration, despite the bivalency of the interaction for comparison purposes. The affinity of the interaction between anti-BCMA antibodies and recombinant human BCMA Fc(kih) was also determined. Anti-human Fab antibody (GE Healthcare) was directly coupled on a CMS chip at pH 5.0 using the standard amine coupling kit (Biacore, Freiburg/Germany). The immobilization level was about 6500 RU. […] The dissociation was monitored for 120 seconds. Bulk refractive index differences were corrected for by subtracting the response obtained on reference flow cell. […] Kinetic constants were derived using the Biacore T100 Evaluation Software (vAA, Biacore AB, Uppsala/Sweden), to fit rate equations for 1:1 Langmuir binding by numerical integration (Table 4).

[5] = biological target: T1, recombinant human BCMA Fc(kih); assay: as above
Protocol: as §2

[6] = biological target: T4, recombinant cynomolgus BCMA Fc(kih); assay: ratio of SPR KD values (KD cynomolgus BCMA / KD human BCMA), reference human BCMA Fc(kih)
Protocol: The avidity of the interaction between anti-BCMA antibodies and recombinant BCMA Fc(kih) (human and cynomolgus) was determined. Biotinylated recombinant human and cynomolgus BCMA Fc(kih) were directly coupled on a SA chip following instructions (Biacore, Freiburg/Germany). The immobilization level ranged from 200 to 700 RU. […] The dissociation was monitored for 180 seconds. Bulk refractive index differences were corrected for by subtracting the response obtained on the reference flow cell. Here, the anti-BCMA antibodies were flown over an empty surface previously activated and deactivated as described in the standard amine coupling kit. Apparent kinetic constants were derived using the Biacore T200 Evaluation Software (vAA, Biacore AB, Uppsala/Sweden), to fit rate equations for 1:1 Langmuir binding by numerical integration, despite the bivalency of the interaction for comparison purposes. The affinity of the interaction between anti-BCMA antibodies and recombinant human BCMA Fc(kih) was also determined. Anti-human Fab antibody (GE Healthcare) was directly coupled on a CMS chip at pH 5.0 using the standard amine coupling kit (Biacore, Freiburg/Germany). The immobilization level was about 6500 RU. […] The dissociation was monitored for 120 seconds. Bulk refractive index differences were corrected for by subtracting the response obtained on reference flow cell. […] Kinetic constants were derived using the Biacore T100 Evaluation Software (vAA, Biacore AB, Uppsala/Sweden), to fit rate equations for 1:1 Langmuir binding by numerical integration (Table 4).
Based on the affinity values described in Example 2, the affinity of anti-BCMA antibodies to human BCMA vs. cynomolgus BCMA were compared and cyno/hu affinity ratio (gap) values were calculated (Table 5).

T4 sequence (A0A2K5UD97 entry or part of it): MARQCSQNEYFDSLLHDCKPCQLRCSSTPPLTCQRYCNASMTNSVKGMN
T3 sequence (O88472 whole entry, the tested form may be a part): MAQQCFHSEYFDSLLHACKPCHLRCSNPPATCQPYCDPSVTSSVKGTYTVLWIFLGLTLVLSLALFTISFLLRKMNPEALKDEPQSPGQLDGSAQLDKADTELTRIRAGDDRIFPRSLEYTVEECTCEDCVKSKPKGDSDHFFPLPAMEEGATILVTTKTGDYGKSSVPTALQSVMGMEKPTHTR

Row | Binder | Kd [1] [pM] | Kd [2] [pM] | Kd [3] [pM] | EC50 (human BCMA on cells) | Kd [4] [pM] | koff [4] [s⁻¹] | kon [4] [M⁻¹ s⁻¹] | Kd [5] [pM] | koff [5] [s⁻¹] | kon [5] [M⁻¹ s⁻¹] | Affinity cyno/hu gap [6] [fold]
1 | B1 | 2500 | 390 | 230 | 2.1 nM and 0.3 µg/mL | 641 | 0.000453 | 707000 | 371 | 0.000298 | 803000 | 1.7
2 | B2 | 970 | 100 | 0.39 | 10.6 nM and 1.52 µg/mL | 2110 | 0.000455 | 216000 | 165 | 5.93e-05 | 359000 | 12.7

— US20220002427A1 (ENGMAB SARL, published 2022)
